Here are results for 41 sequences from the nanobody polyreactivity screen of Harvey et al. (2022).

This series can be described thus: yeast display, Sf9 membrane polyspecificity reagent, FACS + sequencing; frameworks hold sequencing errors. In a few lines:
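Nanobodies came from a synthetic yeast display library in Saccharomyces cerevisiae BJ5465, induced with galactose for 36–48 hours and stained for 1 hour at 4 °C with 10% biotinylated, detergent-solubilized Sf9 membrane reagent. Cells were enriched on streptavidin microbeads and then FACS-sorted, with low and high (top ~1%) gates set on anti-HA fluorescence for expression and streptavidin fluorescence for reagent binding. Each polyreactivity label reflects the gate a clone came from. Genes were amplified by colony PCR, sequenced by MiSeq 2 × 250 and filtered by CDR length.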
In the case of “QVQLVESGGGLVQAGGSLRLSCAASGRIFYGYTMGWYRQAPGKERELVASIDYSTGRTYYADSVKGRFTISRDNAKNTVYLQMNSLKPEDTAVYYCNADPNYSLLRYDYWGQGTQVTVSS”, the “polyreactivity (PSR sort gate)” value is given as “high polyreactivity”.

“QVQLVESGGGLVQAGGSLRLSCAASGRTFYDYAMGWYRQAPGKERELVAAISSRGGRTYYADSVKGRFTISRDNAKNTVYLQMNSLKPEDSAVYYCAKVVDYNDRDSWGQGTQVTVSS”: the “polyreactivity (PSR sort gate)” value was “high polyreactivity”.

In the case of “QVQLVESGGGLVQAGGSLRLSCSASGFIFYLYTMGWYRQAPGKERELVAAITKSGTRTYYADSVKGRFTISRDNAKNTVYLQMNSLKPEDTAVYYCAAEWGSSYRWGMDYWGQGTQVTVSS”, the “polyreactivity (PSR sort gate)” value is recorded as “high polyreactivity”.

Regarding “QVQLVESGGGLVHAGCSLRLSCAASGLIFGSYSMGWYRQAPGKERELVAAISRSGGSTYYADSVKGRFTISRDNAKNTVYFLMNSLKPEDTAVYYCAARGYPLGIGRIKRNYWGQGKQVTVSS”, the “polyreactivity (PSR sort gate)” value is “high polyreactivity”.

For the sequence “QVQLVESGGGLVQAGGSLRLSCAASGSTLYYNAMGWYRQAPGKERELVAAISWSGGSTYYADSVKGRFTISRDNAKNTVYLQMNSLKPEDTAVYYCAAELSSYYDYDYWGQGTQVTVSS”, the “polyreactivity (PSR sort gate)” value is “low polyreactivity”.

Turning to “QVQLEESGGGLVQAGGSLRLSSAASGSTFYIYVMGWYSQAPGKERELVARISSSGGSTYYADSVKGRFTISRDNAKNSVYLQMNSLKPVDTAVYYCNVDYGAWYDYWGQGTQVTVSS”, the “polyreactivity (PSR sort gate)” value was “low polyreactivity”.

“QVQLVESGGGLVQAGGSLRLSCAASGSTFYNYAMGWYRQAPGKERELVAAISSGGGITYYADSVKGRFTISRDNAKNTVYLQMNSLKPEDTAVYYCNVVNYYPKGNNRAQYWFNYWGQGTQVNVSS”: the “polyreactivity (PSR sort gate)” value is listed as “high polyreactivity”.

As for “QVQLVESGGGLVQAGGSLRLSCAASGGTFVGYAMGWYRQAPGKEREFVAAISGSGGSTYYADSVKGRFTISRDNAKNTVYLQMNSLKPEDTAVYYCAARAVSRRFDYWGQGTQVTVSS”, the “polyreactivity (PSR sort gate)” value was “high polyreactivity”.

Regarding “QVQLVESGGGLVQSGGSLRLSCAASGSTFASNAMGWYRQAPGTEMELVAAISRSADSTYYADSVKGRFTISRDNAKNTVYLQMNSLKPEDTAVYYCAARHSRYRNPKYYYWGQGTQVTVSS”, the “polyreactivity (PSR sort gate)” value was “high polyreactivity”.

On to “QVQLVESGGGLVQAGGSLRLSCAASGRIFVPNAMGWYRQAPGKERELVAAITRSGSTYYADSVKGRFTISRDNAKNTVYLQMNSLKPEDTAVYYCAADYYYPSQMDSWGQGTQVTVSS”, for which the “polyreactivity (PSR sort gate)” value is given as “low polyreactivity”.

Consider “QVQLVESGGGLVQAGGSLRLSCAASGYIFLRNAMGWSRQAPGKERELVAAIRRTGGSTYYADSVKGRFTISRDNAKNTVYLQMNSLKPEVTAVYYCAKRSYTGYEYWGQGTQVTVSS”, for which the “polyreactivity (PSR sort gate)” value is “low polyreactivity”.

Regarding “QVQLVESGGGLVQAGGSLRLSCAASGRTFSTNAMGWYRQAPGKERELVAAISASGGSTYYADSVKGRFTISRDNAKNTVYLQMNSLKPEDTAVYYCAAYPGQWRTGYDYWGQGTQVTVSS”, the “polyreactivity (PSR sort gate)” value is “high polyreactivity”.

Consider “QVQLVESGGGLVQAGGSLRLSCAASGRIISYNAMGWYRQAPAKERELVAAISWGGGSTYYADSVKGRFTISRDTAKNTVYLQMNSLKPEDTAVSYCAKGWYRIKRNDYWGQGTQVTVSS”, for which the “polyreactivity (PSR sort gate)” value is “low polyreactivity”.

With “QVQLVESGGGLVQAGGSLRLSCAASGLTFRYYAMGWDRPAPGKERELVAAITASVGSTYYADSVKGRFTISRDNAKNTVYLQMNSLNPEDTAVYYCNADLSYFFGPYWGLYGLDYWGQGTQVTVSS”, the “polyreactivity (PSR sort gate)” value is “low polyreactivity”.

With “QVQRVESGGGLVQAGGSLRLSCAASGLTFRYYAVGWYRQAPGKERELVAAITSNGGRTYYADSVKGRFTISRDNAKNTVYLQMNSLKPEDTAVYYCAAVYLYYGGVDYWGQGTQVTVSS”, the “polyreactivity (PSR sort gate)” value was “high polyreactivity”.

“QVQLVESGGGLVQAGGSLRVSCAASGRTFWTNAMGWYRQAPGKEREILAAISWRGASTFYADSVKGRFTISRDNAKNTVYLQMNSLKPEDTAVYYCAAQSRTRSFYGKYDSWGQGTQVTVSS”: the “polyreactivity (PSR sort gate)” value is on record as “low polyreactivity”.

Turning to “QVQLVESGGGLVQAGGSLRLSCAASGLIFSRNAMGWNRPAPGKERELVAAISTGGSTYYADSVKGRFTISRDNAKNTVYLQMNRLKPVDTAVYYCAAAPGYIYEYWGQGTQVTVSS”, the “polyreactivity (PSR sort gate)” value is “low polyreactivity”.

Regarding “QVQLVESGGGLVQAGGSLRLSCAASGRTFFKYDMGWYRQAPAKERELVAAITWTGGSTYYADSVKGRFTISRDYAKNTVYLQMNSLKPEDTAVYYCAAADYYYVEYDYWGQGTQVTVSS”, the “polyreactivity (PSR sort gate)” value is “low polyreactivity”.

In the case of “QVQLVESGGGLVQAGGSLRLSCAASGSTFKQYAMGWYRQAPGKERELVAAISRSGSRTYYADSVKGRFTISRDNAKNTVYLQMNSLIPEDTAVYYCAAERRSTAGWLYDYWGQGTQVTVSS”, the “polyreactivity (PSR sort gate)” value was “high polyreactivity”.

In the case of “QVQLVESGGGLVQAGGSLRLSCAASGSIFYQYAMGWYRLAPGKERELVARITGSSGSTYYADSVKGRFTISRDNAKNTVYLQKNSLKPEDTAVYYCATDNYLIGDYWGQGTQVTVSS”, the “polyreactivity (PSR sort gate)” value is given as “high polyreactivity”.

As to “QLQLVESGGGLVQAGGSLRLSFAAYGRTFTSNAKGWSRPAPGKERELVAGITSSTGNTHYADSVKGRFTSSRDNAKNTVNFQMNSLKPEDTAVFYCAAVYYVRGYWGTYSRWYDYWGQGTQVTVSS”, the “polyreactivity (PSR sort gate)” value is “high polyreactivity”.

Turning to “QVQLVESGGGLVQAGGSLRLSCAASGRIFPDNAMGWYRQAPGKERELVASITSGASTNYADSVKGRFTISRDNAKNTVYLQMNSLKPEDTAVYYCAAVTYAQYRRFDYWGQGTQVTVSS”, the “polyreactivity (PSR sort gate)” value is “high polyreactivity”.

Take “QVQLVESGGGIVQAGGSLRLSCAASGRIFGGNSMGWYRQAPGKERELVAAITTSGGSTYYADSVKGRFTISRDNAKNTVYLQMNSLKPEDTAVYSCAAGIGDSYWYRRYGYWGQGTQVTVSS”: the “polyreactivity (PSR sort gate)” value was “low polyreactivity”.

With “QVQLVESRGGLVQAGGSLRLSCAASGRTFLGYAMGWYRQAPGKERELVAAISYSGSSTYYADSVKGRFTISRDNAKNTVYLQMNSLKPEDTAVYYCAAQFYFLFDYWGQGTQVTVSS”, the “polyreactivity (PSR sort gate)” value is “low polyreactivity”.

As for “QVQLVESGGGLVQAGGSLRLSCAASGSTFVRYAMGWYRQAPGKERELVAAISNGGNTYYADSVKGRFTISHDNAKNTVYLQMNSLKPEDTAVYYCNKGYVYGHEYWGQGTQVTVSS”, the “polyreactivity (PSR sort gate)” value is listed as “high polyreactivity”.

In the case of “QVQLVESGVGLVQAGGTLRLSCAASGITFLQYAMGWYRQAPGKERELVAGITRSGGAGTYYADSVKGRFTISRDNAKNTVYLQMNSLKPEDTAVYYCAAETDTPSLYQDMYYWGQGTQVTVSS”, the “polyreactivity (PSR sort gate)” value is recorded as “high polyreactivity”.

Regarding “QVQLVESGGGLVQAGGSLRLSCAASGLSFQSYAMGWYRQAPGKERELVAAISRRSGSTYYADSVKGRFTISRDNAKNTVYLQMNSLKPEDTAVYYCTTRRGERGYWGQGTQVTVSS”, the “polyreactivity (PSR sort gate)” value is “high polyreactivity”.

On to “QVQLVESGGGLVQAGGSLRLSCADSGRNFYYYAMGWYRQAPGKERELVAAITSGGRTNYADSVKGRFTISRDNAKNNVYLQMNSLKPEDTAVYYGAATSKYKVRYSRYYYWGQGTQVTVSS”, for which the “polyreactivity (PSR sort gate)” value is recorded as “high polyreactivity”.

On to “QVQLVESGGGLVQAGGSLRLSCAASGTFRVYAMGWYRQAPGKERELVAAISRSGTSTYYSDSVKGRFTISRDNAKNTVYLQMNSLKPEDTAVYYCNDVVRGQYDWGQGTQVTVSS”, for which the “polyreactivity (PSR sort gate)” value is recorded as “high polyreactivity”.

In the case of “QDQLVESGGGLVQAGGSLRLSCDASGSIFKSYAMGWFRQAPGKERELVASITYGGGRTYYADSVKGRFTISRDNAKNTVYLQMNSLKPEDTAVYYCATRLFGRSGMYYLRYDYWGQGTQVTVSS”, the “polyreactivity (PSR sort gate)” value is “high polyreactivity”.

With “QVQLVESGGGLVQAGGSLRLSCAASGLTFQSYVMGWYRPAPGKERELVAAISWSGTRTYFADSVKGRFTISRDNAKNTVYLQMYSLKPEDTAVYSCAADFYTWYEERYWSYNYWGQGTQVTVSS”, the “polyreactivity (PSR sort gate)” value is recorded as “high polyreactivity”.

Take “QVQLVESGGGLVQAGGSLRLSCAASGRIFGSYAMGWYRQAPGKERELVATIRRSGGRTYYADSVKGRFTISRDNAKNTVYLQKTSLKPADTAVYYCAKDEWGNIRHERDYWGQGTQVTVSS”: the “polyreactivity (PSR sort gate)” value is on record as “low polyreactivity”.

Turning to “QVHLVESGGGLVQAGGSLRLSCAASGSNIYNNAMGWYRQAPGTERELVAAIRSTGTRTYYADSVKGRFTISRDNAKNPVNLQMNSLKPEDTAVYYCAVGDYGLWSYDYWGQGTQVTVSS”, the “polyreactivity (PSR sort gate)” value was “low polyreactivity”.

As for “QVQLVESGGGLVQAGGSLRLSCGASGSTFPTYAMGWYRQAPGKERELVAVITSSGGRTYYADSVKGRFTISRDNAKNTVYLQMNSLKPEDTAVYYCAKGSGTIYNLYDYWGQGTQVTVSS”, the “polyreactivity (PSR sort gate)” value is recorded as “high polyreactivity”.

With “QVQLVESGGGLVQAGGSLSLSCAASGSIFRTYALGWYRQAPGKERELVASITKSGARTYYADSVKGRFTISRDNAKNTVYLQMNSLKPEDTAVYYCAAGYYSVTSRRYRMYYWGQGTQVTVSS”, the “polyreactivity (PSR sort gate)” value was “high polyreactivity”.

Regarding “QVQLVESGGGLVQAGGSLRLSCAASGIIFWRYAMGWYRQAPGKERELVASISSSGGRTYYADSVKGRFTISRDNAKNTVYLQMNSLKPEDTAVYYCAARGPYGYDLLYYWGQGTQVTVSS”, the “polyreactivity (PSR sort gate)” value is on record as “high polyreactivity”.

With “QVQLVESGGGLVQAGGSLRLSCSASGIIFKYYAMGWYRQAPVKERELVAAISRSSGSTYYADSVKGRFTISRDNAKNTVYLQMNSLKPEDTAVYYCAASGWQQKLDYWVQGTQVTVSS”, the “polyreactivity (PSR sort gate)” value is recorded as “high polyreactivity”.

As to “QGQLVESGGGLVQAGGSLRLSCAASGRTFYRYAMGWYRQAPGQERELVASITRGTSTNYADSVKGRFTISRDNAKNTVYLQMNSLKPEDTAVYYCAAGASGLFWDYDYWGQGTQVTVSS”, the “polyreactivity (PSR sort gate)” value is on record as “high polyreactivity”.

Take “QVQLVESGGGLVQAGGSLRLSCAACGRTFFPYAIGWYRQAPGKERELVAAITTGDITNYADSVKGRFTISRDNAKNTVYLQMNSLKPEDTAVNYCAARGYASWSYGGYPLKLDYWGQGTQVTVSS”: the “polyreactivity (PSR sort gate)” value is on record as “low polyreactivity”.

Turning to “QVQLVESGGGLVQAGGSLRLSCAASGSIFIYNAMGWYRQAPGKERELVAAISSSGGSTYYADSVKGRITISRDNAKNTVYLQMNSLKPEPTAVYYCAARTYYVRGLGGRPGMDYCGQGTQVTVSS”, the “polyreactivity (PSR sort gate)” value was “low polyreactivity”.

Consider “QVQLVESGGGLVQAGGSLRLSCAASGRIFTGNAMGWYRQAPGTERELVAAITKSGGSTYYADSVKGRFTISRDNAKNTVYLQMNSLKPEDTAVYYCAATRYLHYVYKYGYWGQGTQVTVSS”, for which the “polyreactivity (PSR sort gate)” value was “high polyreactivity”.
